Experimental data published in the Immune Epitope Database (IEDB).

Columns and labels:
HLA-B*46:01 = assay: IEDB peptide-MHC binding, purified MHC/competitive/fluorescence; filed as Kd, often an IC50 or EC50 that approximates it; ≥ and ≤ were set here for values at or beyond the usual limits of such assays
HLA-B*15:17 = assay: as above
HLA-A*02:01 = assay: as above
HLA-B*57:01 = assay: as above
HLA-B*18:01 = assay: as above
HLA-B*39:01 = assay: as above
HLA-B*51:01 = assay: as above
HLA-B*15:01 = assay: as above
HLA-A*69:01 = assay: as above
HLA-A*26:01 = assay: as above
HLA-A*02:03 = assay: IEDB peptide-MHC binding, purified MHC/direct/fluorescence; filed as Kd, often an IC50 or EC50 that approximates it; ≥ and ≤ were set here for values at or beyond the usual limits of such assays
HLA-A*02:11 = assay: as above
HLA-A*02:12 = assay: as above
HLA-A*02:19 [1] = assay: as above
HLA-A*29:02 = assay: as above
HLA-A*23:01 = assay: as above
HLA-B*27:05 = assay: as above; details: source organism: Ebola virus - Gabon (1994-1997)
HLA-A*68:02 = assay: as above
HLA-A*24:03 = assay: as above
HLA-A*02:16 [2] = assay: as above; details: source organism: Zaire ebolavirus
HLA-B*27:03 = assay: IEDB peptide-MHC binding, purified MHC/competitive/fluorescence; filed as Kd, often an IC50 or EC50 that approximates it; ≥ and ≤ were set here for values at or beyond the usual limits of such assays
HLA-A*01:01 = assay: IEDB peptide-MHC binding, purified MHC/direct/fluorescence; filed as Kd, often an IC50 or EC50 that approximates it; ≥ and ≤ were set here for values at or beyond the usual limits of such assays; details: source organism: Reston ebolavirus - Reston
HLA-A*03:01 [3] = assay: as above
HLA-B*15:02 = assay: IEDB peptide-MHC binding, purified MHC/competitive/fluorescence; filed as Kd, often an IC50 or EC50 that approximates it; ≥ and ≤ were set here for values at or beyond the usual limits of such assays
HLA-A*03:01 [4] = assay: as above; details: source organism: Zaire ebolavirus
HLA-B*15:42 = assay: as above; details: source organism: Entamoeba histolytica
HLA-B*45:06 = assay: as above; details: source organism: Entamoeba histolytica
HLA-B*83:01 = assay: as above; details: source organism: Entamoeba histolytica
HLA-A*32:07 = assay: as above; details: source organism: Entamoeba histolytica
HLA-A*31:01 = assay: as above; details: source organism: Entamoeba histolytica
HLA-A*11:01 = assay: IEDB peptide-MHC binding, purified MHC/direct/fluorescence; filed as Kd, often an IC50 or EC50 that approximates it; ≥ and ≤ were set here for values at or beyond the usual limits of such assays; details: source organism: Entamoeba histolytica
HLA-A*02:19 [5] = assay: IEDB peptide-MHC binding, purified MHC/competitive/fluorescence; filed as Kd, often an IC50 or EC50 that approximates it; ≥ and ≤ were set here for values at or beyond the usual limits of such assays; details: source organism: Human immunodeficiency virus type 1 (Z-84 ISOLATE)
HLA-A*02:16 [6] = assay: as above; details: source organism: Human immunodeficiency virus type 1 (Z-84 ISOLATE)
HLA-C*15:02 = assay: IEDB peptide-MHC binding, purified MHC/direct/fluorescence; filed as Kd, often an IC50 or EC50 that approximates it; ≥ and ≤ were set here for values at or beyond the usual limits of such assays; details: source organism: Human immunodeficiency virus type 1 (Z-84 ISOLATE)
[7] = source organism: Zaire ebolavirus
[8] = source organism: Reston ebolavirus
[9] = source organism: Vibrio vulnificus CMCP6
[10] = source organism: Human immunodeficiency virus type 1 (Z-84 ISOLATE)

## GRYNLISPK
HLA-B*46:01; [7]
  Kd: ≥ 20 µM
HLA-B*15:17; [7]
  Kd: ≥ 20 µM
HLA-A*02:01; [7]
  Kd: ≥ 20 µM
HLA-B*57:01; [7]
  Kd: ≥ 20 µM
HLA-B*18:01; [7]
  Kd: ≥ 20 µM
HLA-B*39:01; [7]
  Kd: ≥ 20 µM
HLA-B*51:01; [7]
  Kd: ≥ 20 µM
HLA-B*15:01; [7]
  Kd: ≥ 20 µM
HLA-A*69:01; [7]
  Kd: ≥ 20 µM
HLA-A*26:01; [7]
  Kd: ≥ 20 µM
HLA-A*02:03; [7]
  Kd: ≥ 20 µM
HLA-A*02:11; [7]
  Kd: ≥ 20 µM
HLA-A*02:12; [7]
  Kd: ≥ 20 µM
HLA-A*02:19 [1]; [7]
  Kd: ≥ 20 µM
HLA-A*29:02; [7]
  Kd: ≥ 20 µM
HLA-A*23:01; [7]
  Kd: ≥ 20 µM
HLA-B*27:05
  Kd: 0.0746 µM
HLA-A*68:02; [7]
  Kd: ≥ 20 µM
HLA-A*24:03; [7]
  Kd: ≥ 20 µM
HLA-A*02:16 [2]
  Kd: ≥ 20 µM

## ITDEINQIK
HLA-B*46:01; [8]
  Kd: ≥ 20 µM
HLA-B*15:17; [8]
  Kd: ≥ 20 µM
HLA-A*02:01; [8]
  Kd: ≥ 20 µM
HLA-B*27:03; [8]
  Kd: ≥ 20 µM
HLA-B*57:01; [8]
  Kd: ≥ 20 µM
HLA-B*18:01; [8]
  Kd: ≥ 20 µM
HLA-B*39:01; [8]
  Kd: ≥ 20 µM
HLA-B*51:01; [8]
  Kd: ≥ 20 µM
HLA-B*15:01; [8]
  Kd: ≥ 20 µM
HLA-A*69:01; [8]
  Kd: ≥ 20 µM
HLA-A*26:01; [8]
  Kd: ≥ 20 µM
HLA-A*02:03; [8]
  Kd: ≥ 20 µM
HLA-A*02:11; [8]
  Kd: ≥ 20 µM
HLA-A*02:12; [8]
  Kd: ≥ 20 µM
HLA-A*02:19 [1]; [8]
  Kd: ≥ 20 µM
HLA-A*29:02; [8]
  Kd: ≥ 20 µM
HLA-A*23:01; [8]
  Kd: ≥ 20 µM
HLA-A*01:01
  Kd: ≥ 20 µM
HLA-A*68:02; [8]
  Kd: ≥ 20 µM
HLA-A*03:01 [3]; [8]
  Kd: ≥ 20 µM
HLA-A*24:03; [8]
  Kd: ≥ 20 µM

## NTFAAWLPM
HLA-B*15:02; source organism: Giardia lamblia ATCC 50803
  Kd: 0.193 µM

## PYWQGIWDK
HLA-A*23:01; [9]
  Kd: 0.006 µM
HLA-A*24:03; [9]
  Kd: 0.013 µM

## WLRAMPPRM
HLA-B*15:02; source organism: Vibrio vulnificus YJ016
  Kd: ≥ 20 µM

## SLLHESTLK
HLA-B*46:01; [7]
  Kd: ≥ 20 µM
HLA-B*15:17; [7]
  Kd: ≥ 20 µM
HLA-A*02:01; [7]
  Kd: ≥ 20 µM
HLA-B*27:03; [7]
  Kd: ≥ 20 µM
HLA-B*57:01; [7]
  Kd: ≥ 20 µM
HLA-B*18:01; [7]
  Kd: ≥ 20 µM
HLA-A*03:01 [4]
  Kd: 0.0241 µM
HLA-B*39:01; [7]
  Kd: ≥ 20 µM
HLA-B*51:01; [7]
  Kd: ≥ 20 µM
HLA-B*15:01; [7]
  Kd: ≥ 20 µM
HLA-A*69:01; [7]
  Kd: ≥ 20 µM
HLA-A*26:01; [7]
  Kd: ≥ 20 µM
HLA-A*02:03; [7]
  Kd: ≥ 20 µM
HLA-A*02:11; [7]
  Kd: ≥ 20 µM
HLA-A*02:12; [7]
  Kd: ≥ 20 µM
HLA-A*02:19 [1]; [7]
  Kd: ≥ 20 µM
HLA-A*29:02; [7]
  Kd: ≥ 20 µM
HLA-A*23:01; [7]
  Kd: ≥ 20 µM
HLA-A*68:02; [7]
  Kd: ≥ 20 µM
HLA-A*24:03; [7]
  Kd: ≥ 20 µM
HLA-A*02:16 [2]
  Kd: ≥ 20 µM

## NMQESSKSF
HLA-B*15:02; source organism: Orientia tsutsugamushi str. Ikeda
  Kd: 0.0643 µM

## RMYWGVNPK
HLA-B*15:42
  Kd: ≥ 5 µM
HLA-B*45:06
  Kd: ≥ 5 µM
HLA-B*83:01
  Kd: ≥ 5 µM
HLA-A*32:07
  Kd: 0.0139 µM
HLA-A*31:01
  Kd: ≤ 0.001 µM
HLA-A*03:01 [3]; source organism: Entamoeba histolytica
  Kd: 0.0014 µM
HLA-A*11:01
  Kd: 0.0016 µM

## YIKIFIMIV
HLA-A*02:01; [10]
  Kd: ≥ 20 µM
HLA-A*02:19 [5]
  Kd: ≥ 20 µM
HLA-A*69:01; [10]
  Kd: ≥ 20 µM
HLA-A*02:16 [6]
  Kd: ≥ 20 µM
HLA-C*15:02
  Kd: ≥ 20 µM
